T1: Activin A (human, UniProt P08476 311-426)
T1 sequence: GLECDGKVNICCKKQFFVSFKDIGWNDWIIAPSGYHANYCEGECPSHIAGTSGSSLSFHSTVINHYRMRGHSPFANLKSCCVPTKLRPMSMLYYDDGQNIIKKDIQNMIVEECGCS

T2: Activin B (human, UniProt P09529 293-407)
T2 chain: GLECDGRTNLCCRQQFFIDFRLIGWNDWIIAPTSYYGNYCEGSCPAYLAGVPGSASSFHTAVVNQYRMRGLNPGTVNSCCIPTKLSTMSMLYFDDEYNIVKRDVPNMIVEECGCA

T3: Activin AB (human, UniProt P08476 311-426; P09529 293-407)
T3 chain 1: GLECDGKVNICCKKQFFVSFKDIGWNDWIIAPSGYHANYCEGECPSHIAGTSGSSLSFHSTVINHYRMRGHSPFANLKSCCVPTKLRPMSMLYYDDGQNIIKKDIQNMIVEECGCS
T3 chain 2: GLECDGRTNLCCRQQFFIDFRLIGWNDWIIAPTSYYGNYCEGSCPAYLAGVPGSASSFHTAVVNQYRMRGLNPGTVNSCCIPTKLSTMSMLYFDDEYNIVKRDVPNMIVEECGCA

T4: Activin AC (human, UniProt P55103 237-352)
T4 sequence 1: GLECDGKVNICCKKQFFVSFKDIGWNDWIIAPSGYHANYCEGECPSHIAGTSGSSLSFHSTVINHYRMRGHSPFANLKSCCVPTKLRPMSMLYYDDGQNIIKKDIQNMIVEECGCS
T4 sequence 2: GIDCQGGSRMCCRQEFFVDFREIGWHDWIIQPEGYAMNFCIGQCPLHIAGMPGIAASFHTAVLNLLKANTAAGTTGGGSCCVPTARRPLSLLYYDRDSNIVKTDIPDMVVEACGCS

T5: Activin A (R&D Systems, #338-AC) (human, UniProt P08476 311-426)
T5 construct: Bought protein; also called inhibin-βA dimer; homodimer of two βA subunits
T5 sequence: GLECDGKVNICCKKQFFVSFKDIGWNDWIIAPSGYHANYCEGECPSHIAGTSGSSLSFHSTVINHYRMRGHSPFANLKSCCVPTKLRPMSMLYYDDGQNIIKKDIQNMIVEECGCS

T6: Activin B (homodimer of two inhibin betaB subunits) (human, UniProt P09529 293-407)
T6 construct: Bought (R&D Systems #659-AB-025/CF)
T6 chain: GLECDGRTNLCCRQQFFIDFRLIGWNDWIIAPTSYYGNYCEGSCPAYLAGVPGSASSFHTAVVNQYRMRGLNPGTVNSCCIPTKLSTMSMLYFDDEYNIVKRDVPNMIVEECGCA

B1: H4H10436P2 (antibody, human IgG4, V domains shown)
VH: QVQLVESGGGVVQPGRSLRLTCVASGFTVSSYGMHWVRQAPGKGLEWVAVMFYDESKKYYADSVKGRFTISRDNSKNTLYLQMNSLRVEDTAVYYCARDEQLDFEYWGQGTLVTVSS
VL: not shown
B2: H4H10436P2 (antibody, human IgG4, V domains shown)
VH: QVQLVESGGGVVQPGRSLRLTCVASGFTVSSYGMHWVRQAPGKGLEWVAVMFYDESKKYYADSVKGRFTISRDNSKNTLYLQMNSLRVEDTAVYYCARDEQLDFEYWGQGTLVTVSS
VL: not shown
B3: H4H10440P2 (antibody, human IgG4, V domains shown)
VH: EVQLVESGGGVVQPGGSLRLSCAASTFTFDDFAMHWVRQAPGKGLEWVSLITGDGGSTYYADPVKGRFTISRDNSKNSLYLQMNSLRTEDTALYYCVKDWWIAARPDYYYYGMDVWGQGTTVTVSS
VL: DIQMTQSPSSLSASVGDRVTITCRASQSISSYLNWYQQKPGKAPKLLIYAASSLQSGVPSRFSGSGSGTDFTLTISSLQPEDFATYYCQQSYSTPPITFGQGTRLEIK
B4: H4H10423P (antibody, human IgG4, V domains shown)
VH: QVQLQQSGPGLLKPSQTLSLTCAISGDSVSSNSAAWSWIRQSPSRGLEWLGRTYYRANWFNDYALSVKSRITINPVTSTNHFSLQLHSVTPEDTAVYYCAREGALGYYFDSWGQGTLVTVSS
VL: not shown
B5: H4H10423P (antibody, human IgG4, V domains shown)
VH: QVQLQQSGPGLLKPSQTLSLTCAISGDSVSSNSAAWSWIRQSPSRGLEWLGRTYYRANWFNDYALSVKSRITINPVTSTNHFSLQLHSVTPEDTAVYYCAREGALGYYFDSWGQGTLVTVSS
VL: not shown
B6: H4H10433P2 (antibody, human IgG4, V domains shown)
VH: EVQLVESGGGLVQAGRSLRLSCEASGFTFDDYGMHWVRQGPGKGLEWVSGISWNSGNIDYADSVKGRFTISRDNAKTSLYLQMNSLKTDDTALYFCAKDAVGFNWNYFLFDYWGQGTLVTVSS
VL: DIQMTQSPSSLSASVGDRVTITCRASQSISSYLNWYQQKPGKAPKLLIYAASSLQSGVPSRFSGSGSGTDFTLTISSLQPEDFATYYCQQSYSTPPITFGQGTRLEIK
B7: H4H10429P (antibody, human IgG4, V domains shown)
VH: QVQLVESGGGVVQPGRSLRLSCVASGFTVSSYGIHWVRQAPGKGLEWVSVIWYDGRNKDYADSVKGRFTISRDNSKNTVYLEMKGLRAEDTALYYCARDKTGDFDSWGQGTLVTVSS
VL: DIQMTQSPSSLSASVGDRVTITCRASQNINSFLSWYQQKPGKAPKFLIYDASSIQSGAPSRFSGSGSGTDFTLTISSLQPEDFATYYCQQSYSSPFTFGQGTKLEIK

Tests used:
[1] = biological target: T1, Activin A; assay: cell-based or functional assay
[2] = biological target: T2, Activin B; assay: cell-based or functional assay
[3] = biological target: T3, Activin AB; assay: cell-based or functional assay
[4] = biological target: T4, Activin AC; assay: cell-based or functional assay
[5] = biological target: T1, Activin A; assay: SPR, 5 nM Activin A + 15 nM binder over hActRIIA-hFc surface
Experimental: (§1) The binding signal (RU) was measured at 150 seconds after the start of the injection, and this signal was subtracted by the measured RU value for a negative control reference surface to determine the specific binding signal.

[6] = biological target: T1, Activin A; assay: SPR, 5 nM Activin A + 30 nM binder over hActRIIA-hFc surface
Experimental: as §1

[7] = biological target: T1, Activin A; assay: SPR, 5 nM Activin A + 60 nM binder over hActRIIA-hFc surface
Experimental: as §1

[8] = biological target: T1, Activin A; assay: SPR, 5 nM Activin A + 0.94 nM binder over hActRIIA-hFc surface
Experimental: as §1

[9] = biological target: T1, Activin A; assay: SPR, 5 nM Activin A + 1.88 nM binder over hActRIIA-hFc surface
Experimental: as §1

[10] = biological target: T1, Activin A; assay: SPR, 5 nM Activin A + 3.75 nM binder over hActRIIA-hFc surface
Experimental: as §1

[11] = biological target: T1, Activin A; assay: SPR, 5 nM Activin A + 7.50 nM binder over hActRIIA-hFc surface
Experimental: as §1

[12] = biological target: T1, Activin A; assay: SPR, 5 nM Activin A + 15 nM binder over Follistatin-288 surface
Experimental: as §1

[13] = biological target: T1, Activin A; assay: SPR, 5 nM Activin A + 30 nM binder over Follistatin-288 surface
Experimental: as §1

[14] = biological target: T1, Activin A; assay: SPR, 5 nM Activin A + 60 nM binder over Follistatin-288 surface
Experimental: as §1

[15] = biological target: T1, Activin A; assay: SPR, 5 nM Activin A + 7.5 nM binder over Follistatin-288 surface
Experimental: as §1

[16] = biological target: T1, Activin A; assay: SPR, 5 nM Activin A + 0.94 nM binder over Follistatin-288 surface
Experimental: as §1

[17] = biological target: T1, Activin A; assay: SPR, 5 nM Activin A + 1.88 nM binder over Follistatin-288 surface
Experimental: as §1

[18] = biological target: T1, Activin A; assay: SPR, 5 nM Activin A + 3.75 nM binder over Follistatin-288 surface
Experimental: as §1

[19] = biological target: T1, Activin A; assay: SPR, 5 nM Activin A + 0 nM binder (no inhibitor) over Follistatin-288 surface
Experimental: as §1

[20] = biological target: T1, Activin A; assay: SPR, 5 nM Activin A + 0.00 nM binder (no inhibitor) over hActRIIA-hFc surface
Experimental: as §1

[21] = biological target: T5, Activin A (R&D Systems, #338-AC); assay: SPR blocking: 5 nM Activin A + 15 nM binder over hActRIIB-hFc (Control 4) surface
Experimental: as §1

[22] = biological target: T5, Activin A (R&D Systems, #338-AC); assay: SPR blocking: 5 nM Activin A + 30 nM binder over hActRIIB-hFc (Control 4) surface
Experimental: as §1

[23] = biological target: T5, Activin A (R&D Systems, #338-AC); assay: SPR blocking: 5 nM Activin A + 60 nM binder over hActRIIB-hFc (Control 4) surface
Experimental: as §1

[24] = biological target: T5, Activin A (R&D Systems, #338-AC); assay: SPR blocking: 5 nM Activin A + 0.00 nM binder over hActRIIB-hFc (Control 4) surface
Experimental: as §1

[25] = biological target: T5, Activin A (R&D Systems, #338-AC); assay: SPR blocking: 5 nM Activin A + 0.94 nM binder over hActRIIB-hFc (Control 4) surface
Experimental: as §1

[26] = biological target: T5, Activin A (R&D Systems, #338-AC); assay: SPR blocking: 5 nM Activin A + 1.88 nM binder over hActRIIB-hFc (Control 4) surface
Experimental: as §1

[27] = biological target: T5, Activin A (R&D Systems, #338-AC); assay: SPR blocking: 5 nM Activin A + 3.75 nM binder over hActRIIB-hFc (Control 4) surface
[28] = biological target: T5, Activin A (R&D Systems, #338-AC); assay: SPR blocking: 5 nM Activin A + 7.50 nM binder over hActRIIB-hFc (Control 4) surface
Experimental: as §1

[29] = biological target: T6, Activin B (homodimer of two inhibin …); assay: SPR (Biacore), mAb captured by anti-Fc, Activin B injected, 25 C
Experimental: Antibody-antigen association was monitored for 240 seconds while dissociation in buffer was monitored for 600 seconds. Kinetic association and dissociation rate constants were determined by processing and fitting the data using Scrubber software version 2.0c. Binding equilibrium dissociation constants (KD) and dissociative half-lives (t_{1/2}) were then calculated from the kinetic rate constants as: KD (M)=kd/kₐ and t_{1/2} (min)=[ln 2/(60*kd)]. (NB=no binding observed under the conditions used; NT=not tested).

Binder	IC50, inhibition of 100 pM Activin A in A204/CAGAx12-Luc luciferase bioassay [1] [M]	IC50, inhibition of 50 pM Activin B in A204/CAGAx12-Luc luciferase bioassay [2] [M]	IC50, inhibition of 30 pM Activin AB in A204/CAGAx12-Luc luciferase bioassay [3] [M]	IC50, inhibition of 4 nM Activin AC in A204/CAGAx12-Luc luciferase bioassay [4] [nM]	% bound RU w/ no inhibitor [5] [%]	% bound RU w/ no inhibitor [6] [%]	% bound RU w/ no inhibitor [7] [%]	% bound RU w/ no inhibitor [8] [%]	% bound RU w/ no inhibitor [9] [%]	% bound RU w/ no inhibitor [10] [%]	% bound RU w/ no inhibitor [11] [%]	% bound RU w/ no inhibitor [12] [%]	% bound RU w/ no inhibitor [13] [%]	% bound RU w/ no inhibitor [14] [%]	% bound RU w/ no inhibitor [15] [%]	% bound RU w/ no inhibitor [16] [%]	% bound RU w/ no inhibitor [17] [%]	% bound RU w/ no inhibitor [18] [%]	% bound RU w/ no inhibitor [19] [%]	% bound RU w/ no inhibitor [20] [%]	further results
B1	2e-10	1.3e-10	1.4e-10	1.3	2	2	2	75	55	16	2	1	2	2	1	78	61	16	100	100	–
B2	–	–	–	–	–	–	–	–	–	–	–	–	–	–	–	–	–	–	–	–	% bound RU w/ no inhibitor [21]: 2%; % bound RU w/ no inhibitor [22]: 3%; % bound RU w/ no inhibitor [23]: 4%; % bound RU w/ no inhibitor [24]: 100%; % bound RU w/ no inhibitor [25]: 80%; % bound RU w/ no inhibitor [26]: 60%; % bound RU w/ no inhibitor [27]: 19%; % bound RU w/ no inhibitor [28]: 3%
B3	2.8e-10	5.2e-09	4.3e-10	0.75	4	3	3	75	52	17	6	2	1	0	4	76	57	17	100	100	–
B4	–	–	–	–	–	–	–	–	–	–	–	–	–	–	–	–	–	–	–	–	50 nM Ag Bound (RU) [29]: 4.7 RU
B5	–	–	–	–	–	–	–	–	–	–	–	–	–	–	–	–	–	–	–	–	% bound RU w/ no inhibitor [21]: 42%; % bound RU w/ no inhibitor [22]: 41%; % bound RU w/ no inhibitor [23]: 41%; % bound RU w/ no inhibitor [24]: 100%; % bound RU w/ no inhibitor [25]: 93%; % bound RU w/ no inhibitor [26]: 78%; % bound RU w/ no inhibitor [27]: 47%; % bound RU w/ no inhibitor [28]: 42%
B6	1.5e-10	1e-07	–	–	–	–	–	–	–	–	–	–	–	–	–	–	–	–	–	–	–
B7	1.6e-10	7.9e-08	2.9e-10	0.58	1	1	1	87	66	19	1	1	2	3	1	97	80	20	100	100	–

— patent publication US20220056119A1 (Regeneron, published 2022)
